Assay results: patent US20240150462A1 (UNIVERSITY HEALTH NETWORK, published 2024)

B1: 3B3 (antibody, V domains shown)
VH: QVQLQQPGAELVKPGASVKMSCKASDYTFTSYWITWVKKRPGQGLEWIGDIYPGSDTTNYNEKFKNKATLTVDTSSSTAHMQLSSLTSEDSAVYYCTRPLYQGISPWFAYWGQGTLVTVSA
VL: NIVMTQSPKSMSMSVGERVTLSCKASENVGTYVSWYQQKPEQSPKLLIYGASNRYTGVPDRFTGSGSATDFTLTISSVQAEDLADYHCGQSYSYPFTFGSGTKLEIKR
notes: Entries are printed with leader peptide and part of the mouse constant region; also called LILRB2 antibody 3B3
B2: 6B3 (antibody, V domains shown)
VH: EVQLQESGPELLKPGASMKISCKASGYTFTDDYMNWVKQSHGKSLEWIGDINPNNGGTSYNQKFKGKATLTVDKSSSTAYMELRSLTSEDSAVYYCARGSPWFAYWGQGTLVTVSA
VL: DIQMTQTTSSLSASLGDRVTINCRASQDIRNYLSWYQQKPDGTVKLLIYYTSRLHSGVPSRFSGSGSGRDYSLTISNLEQEDIATYFCQQSNTLPWTFGGGTKLEITR
notes: Entries are printed with leader peptide and part of the mouse constant region (heavy entry ends within CH1); also called LILRB2 antibody 6B3
B3: 8D2 (antibody, V domains shown)
VH: QIQLVQSGPELKKPGETVKISCKASGYTFTTYGMSWVKQAPGKGLKWMGWINTYSGAPAYVDDFKGRFAFSLETSASTAYLQINNLKNEDTATYFCARHFYSGSSYWYFDVWGTGTTVTVSS
VL: DIQMTQSPASLSVSVGETVTITCRASENIYSNLAWYQQKQGKSPQLLVYAATNLADGVPSRFSGSGSGTQYSLKINSLQSEDFGSYYCQHFWGTPRTFGGGTKLEIKR
notes: Entries are printed with leader peptide and part of the mouse constant region; also called LILRB2 antibody 8D2
B4: 10A8 (antibody, V domains shown)
VH: EVQLVESGGDFVKPGGSLKLSCAASGFTFSSYDMSWVRQTPDKRLEWVATIIRGDSYTYYLDSVKGRFTISRDNAKNTLYLQMSSLKSEDTAMYYCARPSYGNSFDYWGQGTTLTVSS
VL: DIVMTQSHKFMSTSIGDRVSITCKASQDVNNAVAWYQQKPGQSPKLLIYAASYRYTGVPDRFTGSGSGTDFTFTISSVQAEDLAVYHCQQHYGIPWTFGGGTKLEIKR
notes: Entries are printed with leader peptide and part of the mouse constant region; also called LILRB2 antibody 10A8
B5: 10D4 (antibody, V domains shown)
VH: QVQLQQSDAELVKPGASVKISCKVSGYTFSDHTFHWMKQRPEQGLEWIGYFYPRDGRSKYNEKFRDKATLTADKSSSTAYMQLNSLTSEDSAVYFCTCDGFDYWGQGTTLTVSS
VL: DIKMTQSPSSMHASLGERVTITCKASQDINSYLSWFQQKPGKSPKTLIYHADRLVDGVPSRFSGSGSGQDYSLTISSLEYEDMGIYYCLQYDEFPYTFGGGTKLEIKR
notes: Entries are printed with leader peptide and part of the mouse constant region; also called LILRB2 antibody 10D4

target: T1, Recombinant human Fc-tagged extracellular domain of LILRB2 (human, UniProt Q8N423 22-460); experiment: SPR, Biacore X100; LILRB2-Fc amine-coupled to CM5 chip, antibody injected at 3.7-300 nM
T1 construct: extracellular domain; Bought from R&D Systems; also called LILRB2-Fc; not shown: Fc tag
T1 sequence (Q8N423 22-460): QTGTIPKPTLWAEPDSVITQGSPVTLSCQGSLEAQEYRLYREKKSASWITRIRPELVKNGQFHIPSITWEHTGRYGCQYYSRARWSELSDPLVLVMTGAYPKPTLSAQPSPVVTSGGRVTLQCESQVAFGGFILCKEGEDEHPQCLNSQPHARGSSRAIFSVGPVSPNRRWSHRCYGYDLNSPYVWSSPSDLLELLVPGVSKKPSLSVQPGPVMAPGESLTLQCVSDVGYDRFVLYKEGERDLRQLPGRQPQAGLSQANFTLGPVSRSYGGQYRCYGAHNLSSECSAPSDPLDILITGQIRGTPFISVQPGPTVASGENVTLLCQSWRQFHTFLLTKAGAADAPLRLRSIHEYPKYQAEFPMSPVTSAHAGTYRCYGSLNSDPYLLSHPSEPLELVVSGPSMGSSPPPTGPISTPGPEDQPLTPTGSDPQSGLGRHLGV
Procedure: Dissociation constants (Kd) for mouse anti-human LILRB1 and LIRB2 antibodies were determined using a Biacore X100 surface plasmon resonance instrument (Cytivia). Recombinant human Fc-tagged extracellular domains of LILRB1 or LILRB2 (LILRB1-Fc or LILRB2-Fc; R&D Systems) were immobilized on a Biacore CM5 biosensor chip by amine coupling at a density of 40-50 relative units (RU). Purified mouse monoclonal antibodies were injected over the biosensor in a concentration series of 3.7, 11, 33, 100, and 300 nM in HBS-EP buffer (10 mM HEPS pH 7.4, […], 3 mM EDTA, 0.005% v/v Surfactant P20) at a flow rate of 50 μL/min. Regeneration of the chip was achieved by a 30 s injection of 10 mM glycine-HCl, pH 1.7. Affinity parameters were determined by fitting response data using the accompanying Biacore X100 analysis software.

Binder | -log(Kd)
B1 | 8.01
B2 | 9.02
B3 | 8.43
B4 | 8.77
B5 | 7.82
